Assay results reported in patent US6710030B1, “Contortrostain (CN) and methods for its use in preventing metastasis and other conditions” (University of Southern California, priority 1993, dated 2004).
Where two headings read alike, the source gives them in different places.

Assays:
[1] = system: human platelet rich plasma; experiment: ADP-induced platelet aggregation in human platelet rich plasma; assay type: cell-based
Procedure: (§1) Column fractions obtained during purification were assayed for activity using fresh human platelet rich plasma (PRP) prepared from blood obtained from human volunteers who had had no medication for at least two weeks. Blood (36 ml) was drawn into 4 ml of 0.1 M citrate and centrifuged at 150×g for 20 minutes. The supernatant, PRP, was removed and the remaining blood was centrifuged at 10,000 RPM to obtain platelet poor plasma (PPP). Platelet counts were adjusted to 250,000 platelets/μl using a Coulter counter. A Helena four channel aggregometer was used to monitor platelet aggregation. Inhibition of ADP-induced platelet aggregation was monitored at 37° C. by adding venom fractions one minute prior to the addition of ADP (10-20 μM final concentration). […] Rabbit and canine PRP was prepared by the same procedure and used in the studies described below.
(§2) CN inhibited ADP-induced platelet aggregation in human, canine, and rabbit PRPs (FIG. 6). Empty circles represent human platelet rich plasma, solid circles represent canine PRP, and empty triangles represent rabbit PRP. Varying concentration of CN were preincubated for one minute with PRP prior to the addition of ADP.

Solubility in water = assay type: physicochemical
Source text: CN may be administered by a variety of heretofore known means suitable for delivery thereof into the blood stream in substantial amounts. Intravenous administration of CN in a suitable liquid vehicle or excipient is presently contemplated as the preferred route of administration. […] Alternatively, CN may be administered orally (in the form of tablets or capsules formulated with a suitable binder or excipient material, or in the form of aqueous or oily suspensions, solutions, emulsions, syrups or elixirs) or as a parenteral suspension. As is well known in the art, adjuvants such as local anesthetics, preservatives, buffering agents, lubricants, wetting agents, colorants, flavorings, fillers and diluents may suitably be included in any of these formulations.

OVCAR-5 cells = experiment: Invasion of OVCAR-5 cells through Matrigel, modified Boyden chamber; assay type: cell-based, human; conditions: 1000 nM
Procedure: Modified Boyden chambers were employed to measure invasion. Filters of 12 mm Boyden chamber with 12 μm pore size (Corning Costar, Cambridge, Mass.) were coated with 1:50 dilution of Matrigel in serum free medium. Cells (2.5×10^5 cells in 200 μl of medium) pre-treated with contortrostatin, antibodies against different integrins, or vehicle (control), were applied to the upper wells. HT1080 conditioned medium was added to the bottom well. The cells were incubated at 37° C. for 8 hr., at which point cells on the top side of the membrane were removed with a wet cotton swab. Cells which invaded through the filter membrane were fixed and stained with Diff-Quik™ staining kit (Dade Diagnostics of P. R. Inc., Aguada, Puerto Rico). The membranes were removed from the holder, and were mounted on slides. Migration was quantitated by determining the number of cells in five randomly selected high power vision field using a microscope. Each inhibitor concentration was tested in duplicate, and the experiments were repeated three times to confirm results.

T24 cells [2] = experiment: Adhesion of T24 cells to immobilized vitronectin; assay type: cell-based, human
Procedure: Individual wells of 96-well plates were coated at 4° C. overnight with 100 μl of vitronectin (1 μg/well). Excess proteins were washed off with three washes of phosphate buffered saline (PBS), followed by blocking with 1% bovine serum albumin (BSA) in PBS. Aliquots (100 μl) of cells (5×10^5 cells/ml) were incubated at room temperature for 20 minutes with antibodies or contortrostatin before being applied to the coated wells. Treated cells were allowed to adhere to the wells for 30 minutes at 37° C. Unbound cells were washed off with serum-free medium. Cell adhesion was quantified either by CellTiter 96™ Aqueous Proliferation Assay kit (Promega, Madison, Wis.). Each inhibitor concentration was tested in triplicate, and assays were performed at least three times yielding identical results.

[3] = system: human melanoma M24 met cells; experiment: M24 met cell adhesion to extracellular matrix proteins; assay type: cell-based
Source text: (§3) The compositions of the present invention also have utility in inhibiting metastasis in melanoma, carcinoma and sarcoma patients. […] Thus, methods and compositions for preventing metastases in melanoma, carcinoma and sarcoma patients are also contemplated as within the scope of the present invention.

rabbit PRP = experiment: ADP-induced platelet aggregation in rabbit PRP; assay type: cell-based; conditions: 20 μM ADP
Procedure: as §1, §2

[4] = system: KSY-1 Kaposi's sarcoma cells; experiment: Phosphotyrosine immunoblot, KSY-1 Kaposi's sarcoma cells; assay type: cell-based; conditions: data not shown
[5] = system: human melanoma M24 met cells; experiment: CN binding to human melanoma M24 met cells
Source text: as §3

T24 cells [6] = experiment: Cellular binding to laminin and Matrigel; assay type: cell-based, human
MDA-MB-435 cells = experiment: Growth of MDA-MB-435 cells in vitro on Matrigel-coated plates; assay type: cell-based, human
Procedure: MDA-MB-435 cells (0.3×10^6/ml) were added to each well of a 6-well cell culture plates coated with 1/100 dilution of Matrigel . Cells were then treated with CN at various concentration. Growth curves of MDA-MB-435 cells in vitro without CN (circles), and with CN at 100 nM (triangles), and 500 nM (diamonds) are illustrated. Six-well cell culture plates coated with Matrigel (1/100 dilute) were seeded with 3 ml of MDA-MB-435 cell suspension (0.3×10^6/ml). Cell density was determined every 24 hours.

purified αvβ5 = purified αvβ5 (Homo sapiens, UniProt P06756+P18084); experiment: Solid-phase binding of contortrostatin to purified αvβ5 (modified ELISA); conditions: 100 ng αvβ5 per well
Procedure: Experiment 3: Detection of the binding of contortrostatin to αvβ5: Direct evidence that contortrostatin binds to αvβ5 was collected by solid-phase binding assay using purified αvβ5 and a modified ELISA. Soluble αvβ5 (100 ng) was immobilized on wells of a 96-well plate at 4° C. overnight. Excess protein was washed off, and unbound sites were blocked with 1% BSA/PBS. Contortrostatin at various concentrations was allowed to bind to the coated plate at room temperature for one hour. After three washes with PBS, the bound contortrostatin molecules were detected with 1:1,000 antiserum against contortrostatin. Goat anti-rabbit antibody conjugated with alkaline phosphotase was used as a secondary antibody. The bound antibodies were quantitated by applying substrate disodium p-nitrophenyl phosphate (pNPP) and determining the light absorbance at 405 nm 15 minutes after the initiation of the chromagenic reaction. The background is defined by the binding of antiserum against the disintegrin to immobilized αvβ5. Specific binding is obtained by substrating the background from the total binding. Analyses of each concentration of ligand were performed in triplicate.

[7] = system: human fibrosarcoma (HT-1080) cells; conditions: cited from earlier work

Sequence of purified αvβ5 (P06756 31-889 limits assumed): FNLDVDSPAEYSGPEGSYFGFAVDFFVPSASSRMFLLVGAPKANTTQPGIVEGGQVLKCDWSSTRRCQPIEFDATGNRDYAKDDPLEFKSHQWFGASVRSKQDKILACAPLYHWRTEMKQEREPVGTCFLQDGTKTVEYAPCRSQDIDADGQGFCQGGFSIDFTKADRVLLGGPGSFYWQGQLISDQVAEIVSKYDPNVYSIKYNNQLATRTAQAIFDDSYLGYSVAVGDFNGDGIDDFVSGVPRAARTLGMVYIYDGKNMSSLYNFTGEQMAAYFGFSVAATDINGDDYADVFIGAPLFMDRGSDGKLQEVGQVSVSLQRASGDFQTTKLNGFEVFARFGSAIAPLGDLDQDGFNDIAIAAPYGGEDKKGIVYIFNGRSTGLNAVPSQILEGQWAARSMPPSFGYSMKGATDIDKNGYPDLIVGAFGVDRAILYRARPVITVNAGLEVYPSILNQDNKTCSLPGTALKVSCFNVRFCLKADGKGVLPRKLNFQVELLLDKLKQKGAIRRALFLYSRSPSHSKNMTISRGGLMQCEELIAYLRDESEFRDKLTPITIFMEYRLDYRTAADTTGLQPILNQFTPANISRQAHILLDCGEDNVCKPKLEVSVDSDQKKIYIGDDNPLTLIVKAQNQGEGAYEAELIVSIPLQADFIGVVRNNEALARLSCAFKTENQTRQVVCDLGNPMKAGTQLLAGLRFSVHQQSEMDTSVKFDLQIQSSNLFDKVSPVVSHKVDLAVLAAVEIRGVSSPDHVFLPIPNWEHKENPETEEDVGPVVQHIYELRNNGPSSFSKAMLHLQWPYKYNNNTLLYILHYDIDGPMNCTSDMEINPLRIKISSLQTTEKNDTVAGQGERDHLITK
Sequence of purified αvβ5 (P18084 24-799): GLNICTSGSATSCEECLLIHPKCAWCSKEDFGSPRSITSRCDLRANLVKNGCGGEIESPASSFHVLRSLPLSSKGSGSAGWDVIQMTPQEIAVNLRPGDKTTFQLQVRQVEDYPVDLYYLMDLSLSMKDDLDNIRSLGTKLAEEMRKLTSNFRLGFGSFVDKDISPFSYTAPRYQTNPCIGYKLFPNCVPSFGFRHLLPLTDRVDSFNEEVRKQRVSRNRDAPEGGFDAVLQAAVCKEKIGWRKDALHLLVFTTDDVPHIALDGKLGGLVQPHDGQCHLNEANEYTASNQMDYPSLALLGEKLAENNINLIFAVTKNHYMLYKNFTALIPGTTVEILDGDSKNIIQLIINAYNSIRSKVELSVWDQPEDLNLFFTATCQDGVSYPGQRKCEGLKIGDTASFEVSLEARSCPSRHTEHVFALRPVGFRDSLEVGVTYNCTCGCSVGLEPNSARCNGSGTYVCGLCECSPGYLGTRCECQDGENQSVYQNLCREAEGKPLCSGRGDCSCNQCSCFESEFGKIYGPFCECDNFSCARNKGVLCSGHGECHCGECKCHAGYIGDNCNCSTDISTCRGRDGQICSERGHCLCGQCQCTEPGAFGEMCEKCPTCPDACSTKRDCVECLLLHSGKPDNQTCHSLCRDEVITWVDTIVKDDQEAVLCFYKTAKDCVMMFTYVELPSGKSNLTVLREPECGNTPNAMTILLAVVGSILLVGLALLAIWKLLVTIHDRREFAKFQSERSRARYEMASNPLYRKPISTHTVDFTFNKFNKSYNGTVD

B1: contortrostatin (protein)
chain: DAPANPCCDAATCKLTTGSQCADGLCCDQCKFMKEGTVCRRARGDDLDDYCNGISAGCPRNPFHA
Q: Which “IC50 of ADP-induced human platelet aggregation” value ([1]; 10 μM ADP, preincubated one minute) does the source give for B1 here?
A: Its value is 0.73 µg/mL.

Q: And the “platelet aggregation inhibitory activity after reduction of the disulfide bonds” value ([1]; even at concentrations ten times the IC50)?
A: Its value is “completely eliminated platelet aggregation inhibitory activity”.

Q: And the solubility (Solubility in water)?
A: The solubility was “soluble in water”.

Q: What about the “invasion of OVCAR-5 cells through Matrigel” value (OVCAR-5 cells) of the same molecule?
A: Its value is “almost completely inhibited invasion”.

Q: What about the “adhesion of T24 cells to vitronectin, in words” value (T24 cells [2]; FIG. 19 A, B) of the same molecule?
A: The value was “inhibits adhesion of T24 completely”.

Q: And the “inhibition of adhesion of T24 cells to vitronectin” value (T24 cells [2]; at a concentration less than 10 μg/ml)?
A: The value was 100%.

Q: What about the “M24 met cell adhesion to fibronectin and vitronectin” value [3] of the same molecule?
A: The value was “inhibit”.

Q: And the “IC50 of ADP-induced rabbit platelet aggregation” value (rabbit PRP)?
A: Its value is 17.3 µg/mL.

Q: And the “tyrosine phosphorylation of 120-140 kDa proteins” value [4]?
A: Its value is “also observed”.

Q: What about the “number of sites, high affinity site” value [5] of the same molecule?
A: The value was 96,000 (±39,000) sites per cell.

Q: What about the “number of sites, lower affinity site” value [5] of the same molecule?
A: The value was 480,000 (±90,000) sites per cell.

Q: And the Kd ([5]; read-out: Kd, lower affinity site)?
A: The Kd was 41 nM.

Q: And the Kd ([5]; read-out: dissociation constant (Kd), high affinity site)?
A: The Kd was 1.1 nM.

Q: And the “cellular binding to Matrigel” value (T24 cells [6])?
A: Its value is “does not inhibit cellular binding to Matrigel”.

Q: And the “cellular binding to laminin” value (T24 cells [6])?
A: Its value is “does not significantly inhibit cellular binding to laminin”.

Q: What about the “cytotoxicity during in vitro culture” value (MDA-MB-435 cells) of the same molecule?
A: The value was “no direct cytotoxicity”.

Q: And the “proliferation of MDA-MB-435 cells” value (MDA-MB-435 cells; CN at 100 nM and 500 nM)?
A: The value was “proliferate equally well as control cells”.

Q: And the “binding to immobilized αvβ5” value (purified αvβ5)?
A: The value was “binds to αvβ5 in a dose-dependent and saturable manner”.

Q: What about the “Inhibition of HT1080 cell binding to fibronectin” value ([7]; CN at 1 μg/ml) of the same molecule?
A: The value was 89%.

Q: And the “Inhibition of HT1080 cell binding to fibronectin” value ([7]; CN at 5 μg/ml)?
A: The value was 85%.
